Experimental data reported in patent publication US9284543B2, “Neutral active soluble truncated PH20 polypeptides and uses thereof” (Halozyme, Inc., priority 2008, dated 2016).

B1: SPAM1-VASL: full length human PH20, precursor 509 aa (SEQ ID NO:1), mature 474 aa (SEQ ID NO:108) (protein, listed as Homo sapiens)
chain: MGVLKFKHIFFRSFVKSSGVSQIVFTFLLIPCCLTLNFRAPPVIPNVPFLWAWNAPSEFCLGKFDEPLDMSLFSFIGSPRINATGQGVTIFYVDRLGYYPYIDSITGVTVNGGIPQKISLQDHLDKAKKDITFYMPVDNLGMAVIDWEEWRPTWARNWKPKDVYKNRSIELVQQQNVQLSLTEATEKAKQEFEKAGKDFLVETIKLGKLLRPNHLWGYYLFPDCYNHHYKKPGYNGSCFNVEIKRNDDLSWLWNESTALYPSIYLNTQQSPVAATLYVRNRVREAIRVSKIPDAKSPLPVFAYTRIVFTDQVLKFLSQDELVYTFGETVALGASGIVIWGTLSIMRSMKSCLLLDNYMETILNPYIINVTLAAKMCSQVLCQEQGVCIRKNWNSSDYLHLNPDNFAIQLEKGGKFTVRGKPTLEDLEQFSEKFYCSCYSTLSCKEKADVKDTDAVDVCIADGVCIDAFLKPPMETEEPQIFYNASPSTLSATMFIVSILFLIISSVASL
modifications: Human PH20 cDNA encoding amino acids 1-509
B2: SPAM1-SILF: C-terminally truncated human PH20, precursor 500 aa (SEQ ID NO:48), mature 465 aa (SEQ ID NO:100) (protein, listed as Homo sapiens)
chain 1: MGVLKFKHIFFRSFVKSSGVSQIVFTFLLIPCCLTLNFRAPPVIPNVPFLWAWNAPSEFCLGKFDEPLDMSLFSFIGSPRINATGQGVTIFYVDRLGYYPYIDSITGVTVNGGIPQKISLQDHLDKAKKDITFYMPVDNLGMAVIDWEEWRPTWARNWKPKDVYKNRSIELVQQQNVQLSLTEATEKAKQEFEKAGKDFLVETIKLGKLLRPNHLWGYYLFPDCYNHHYKKPGYNGSCFNVEIKRNDDLSWLWNESTALYPSIYLNTQQSPVAATLYVRNRVREAIRVSKIPDAKSPLPVFAYTRIVFTDQVLKFLSQDELVYTFGETVALGASGIVIWGTLSIMRSMKSCLLLDNYMETILNPYIINVTLAAKMCSQVLCQEQGVCIRKNWNSSDYLHLNPDNFAIQLEKGGKFTVRGKPTLEDLEQFSEKFYCSCYSTLSCKEKADVKDTDAVDVCIADGVCIDAFLKPPMETEEPQIFYNASPSTLSATMFIVSILF
chain 2: LNFRAPPVIPNVPFLWAWNAPSEFCLGKFDEPLDMSLFSFIGSPRINATGQGVTIFYVDRLGYYPYIDSITGVTVNGGIPQKISLQDHLDKAKKDITFYMPVDNLGMAVIDWEEWRPTWARNWKPKDVYKNRSIELVQQQNVQLSLTEATEKAKQEFEKAGKDFLVETIKLGKLLRPNHLWGYYLFPDCYNHHYKKPGYNGSCFNVEIKRNDDLSWLWNESTALYPSIYLNTQQSPVAATLYVRNRVREAIRVSKIPDAKSPLPVFAYTRIVFTDQVLKFLSQDELVYTFGETVALGASGIVIWGTLSIMRSMKSCLLLDNYMETILNPYIINVTLAAKMCSQVLCQEQGVCIRKNWNSSDYLHLNPDNFAIQLEKGGKFTVRGKPTLEDLEQFSEKFYCSCYSTLSCKEKADVKDTDAVDVCIADGVCIDAFLKPPMETEEPQIFYNASPSTLSATMFIVSILF
modifications: HuPH20 precursor 1-500; Mature HuPH20 36-500
B3: SPAM1-IVSI: C-terminally truncated human PH20, precursor 498 aa (SEQ ID NO:49), mature 463 aa (SEQ ID NO:101) (protein, listed as Homo sapiens)
chain 1: MGVLKFKHIFFRSFVKSSGVSQIVFTFLLIPCCLTLNFRAPPVIPNVPFLWAWNAPSEFCLGKFDEPLDMSLFSFIGSPRINATGQGVTIFYVDRLGYYPYIDSITGVTVNGGIPQKISLQDHLDKAKKDITFYMPVDNLGMAVIDWEEWRPTWARNWKPKDVYKNRSIELVQQQNVQLSLTEATEKAKQEFEKAGKDFLVETIKLGKLLRPNHLWGYYLFPDCYNHHYKKPGYNGSCFNVEIKRNDDLSWLWNESTALYPSIYLNTQQSPVAATLYVRNRVREAIRVSKIPDAKSPLPVFAYTRIVFTDQVLKFLSQDELVYTFGETVALGASGIVIWGTLSIMRSMKSCLLLDNYMETILNPYIINVTLAAKMCSQVLCQEQGVCIRKNWNSSDYLHLNPDNFAIQLEKGGKFTVRGKPTLEDLEQFSEKFYCSCYSTLSCKEKADVKDTDAVDVCIADGVCIDAFLKPPMETEEPQIFYNASPSTLSATMFIVSI
chain 2: LNFRAPPVIPNVPFLWAWNAPSEFCLGKFDEPLDMSLFSFIGSPRINATGQGVTIFYVDRLGYYPYIDSITGVTVNGGIPQKISLQDHLDKAKKDITFYMPVDNLGMAVIDWEEWRPTWARNWKPKDVYKNRSIELVQQQNVQLSLTEATEKAKQEFEKAGKDFLVETIKLGKLLRPNHLWGYYLFPDCYNHHYKKPGYNGSCFNVEIKRNDDLSWLWNESTALYPSIYLNTQQSPVAATLYVRNRVREAIRVSKIPDAKSPLPVFAYTRIVFTDQVLKFLSQDELVYTFGETVALGASGIVIWGTLSIMRSMKSCLLLDNYMETILNPYIINVTLAAKMCSQVLCQEQGVCIRKNWNSSDYLHLNPDNFAIQLEKGGKFTVRGKPTLEDLEQFSEKFYCSCYSTLSCKEKADVKDTDAVDVCIADGVCIDAFLKPPMETEEPQIFYNASPSTLSATMFIVSI
modifications: HuPH20 precursor 1-498; Mature HuPH20 36-498
B4: SPAM1-VSIL: C-terminally truncated human PH20, precursor 499 aa (SEQ ID NO:7), mature 464 aa (SEQ ID NO:59) (protein, listed as Homo sapiens)
chain: LNFRAPPVIPNVPFLWAWNAPSEFCLGKFDEPLDMSLFSFIGSPRINATGQGVTIFYVDRLGYYPYIDSITGVTVNGGIPQKISLQDHLDKAKKDITFYMPVDNLGMAVIDWEEWRPTWARNWKPKDVYKNRSIELVQQQNVQLSLTEATEKAKQEFEKAGKDFLVETIKLGKLLRPNHLWGYYLFPDCYNHHYKKPGYNGSCFNVEIKRNDDLSWLWNESTALYPSIYLNTQQSPVAATLYVRNRVREAIRVSKIPDAKSPLPVFAYTRIVFTDQVLKFLSQDELVYTFGETVALGASGIVIWGTLSIMRSMKSCLLLDNYMETILNPYIINVTLAAKMCSQVLCQEQGVCIRKNWNSSDYLHLNPDNFAIQLEKGGKFTVRGKPTLEDLEQFSEKFYCSCYSTLSCKEKADVKDTDAVDVCIADGVCIDAFLKPPMETEEPQIFYNASPSTLSATMFIVSIL
modifications: mature HuPH20 36-499

How the values were obtained:
[1] = tested on: CHO-S cells; experiment: PI-PLC treatment of expressing cells, Western blot of media and cells; assay type: cell-based, Chinese Hamster; conditions: cells incubated with PI-PLC for 2 hours
Experimental: In this example, following transient expression, as described in Example 2 above, the media and cells were harvested separately and analyzed for PH20 expression and solublility by Western blot analysis. Solubility of the C-terminus truncation mutants was determined by examining whether the expressed protein was present in the growth media or in the cells. […] Cells expressing these mutants were treated with phosphoinositol-phospholipase C (PI-PLC), which cleaves the GPI-anchor allowing the release of soluble protein into the media, and the presence of PH20 in the resulting media and cells was determined by Western blot analysis.
Following expression of rHuPH20 in CHO—S cells for 72 hours, as described in Example 2A above, the media and cells were harvested separately. The cells were washed with serum-free media followed by the addition of 2 mL serum-free media per well. PI-PLC (0.5 units/well) was added to each well and the cells were incubated in the PI-PLC for 2 hours. The resultant media and cells were analyzed by Western blot analysis as described above.
Two plates each of rHuPH20 expressing CHO—S cells, one for treatment with PI-PLC and one without treatment with PI-PLC, were prepared for each C-terminus mutant as described in Example 2B above. Following expression for 48 hours, for cells untreated with PI-PLC, the media and cells were harvested separately. The harvested media was spun down, concentrated to a volume of 10 mL, and buffer exchanged into PBS using an Amicon 30 kD MWCO concentrator. The cells were rinsed with cold PBS and scraped and resuspended in 1.2 mL PBS with protease inhibitor Set III (Cat No. 539134, Calbiochem). The resuspended cells were briefly sonicated to prepare whole-cell extract. For PI-PLC treatment of cells, following expression for 48 hours, the untreated media was harvested, as described above. The cells were rinsed once with fresh CD DG44 medium with Glutamax-1, and the media was replaced with 12 mL fresh detergent free CD DG44 medium supplemented with Glutamax-1 with 3.0 units PI-PLC per dish, and the cells were incubated for 2 hours at 37° C. with 5% CO2. After 2 hours, the PI-PLC media and cells were harvested separately, as described above. The resultant untreated media and cells, and PI-PLC treated media and cells, were analyzed by Western blot analysis as described above.

[2] = Microtiter hyaluronidase activity assay with biotinylated-hyaluronic acid; assay type: biochemical; conditions: for pH 5.5 Activity / pH 7.4 Activity: 72 hour post transfection supernatant; for Hyaluronidase activity (in words): pH 7.4 and pH 5.5
[3] = Triton X-114 partition assay; assay type: physicochemical; conditions: partition into aqueous phase of Triton X-114 at 37° C.
Experimental: Solubility of a hyaluronidase can be determined by any method known to one of the skill in the art. One method for determining solubility is by detergent partitioning. […] For example, the solubility of the PH20 polypeptides described herein is assessed as described in Example 4. Membrane-anchored hyaluronidases, such as lipid-anchored hyaluronidases, including GPI-anchored hyaluronidases, will partition into the detergent-rich phase, but will partition into the detergent-poor or aqueous phase following treatment with Phospholipase C. Phospholipase C is an enzyme that cleaves the […] found in GPI-anchored proteins. Treatment with PLC will cause release of GPI-linked proteins from the outer cell membrane.
The samples were heated to 37° C. for 3 minutes to induce phase separation and centrifuged for 3 min at 4000 g at room temperature. Aqueous and detergent phases were removed for SDS-PAGE analysis and Western blotting. Rabbit anti-PH20 IgG (0.5 μg/mL) was used as the primary antibody and HRP-conjugated goat anti-Rabbit IgG (0.1 ng/mL, Cat#DC03L, EMD) was used as the secondary antibody. Full length human PH20, which partitions strongly into the detergent phase, was used as a control.

[4] = tested on: CHO-S cells; experiment: Western blot analysis of PH20 expression in media and cells after transient expression; assay type: cell-based, Chinese Hamster; conditions: media versus cells
How it was run: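 PH20 expression and solubility were judged by anti-PH20 Western blot of non-reduced media and cell fractions, with expression shown by a ~66 kDa band. Samples came from CHO-S cells transiently transfected (GeneJuice) with mutant PH20-HZ24 DNA and cultured 48-72 h. GPI-anchored mutants were cleaved with PI-PLC to release soluble protein.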

Row | Molecule | Expressed in Media Following Addition of PI-PLC [1] | pH 5.5 Activity ([2]; Table 6) | pH 7.4 Activity ([2]; Table 6) | Soluble ([3]; listed as Full length PH20) | Expressed in Media [4] | pH 5.5 Activity ([2]; Table 6A) | pH 7.4 Activity ([2]; Table 6A) | Hyaluronidase activity (in words) [2] | Soluble [3]
1 | B1 | YES | 0.891 Units/ml | 1.8045 Units/ml | insoluble | – | – | – | – | –
2 | B2 | Initially in media | – | – | – | WEAK/YES | 0.162 Units/ml | 0.365 Units/ml | little detectable activity | YES
3 | B3 | Initially in media | – | – | – | YES | 0.203 Units/ml | 0.527 Units/ml | little detectable activity | YES
4 | B4 | Initially in media | 0.045 Units/ml | 0.02025 Units/ml | – | YES | 0.122 Units/ml | 0.486 Units/ml | little detectable activity | YES
